Measured values reported in CN115960240A (CHINESE ACADEMY OF MEDICAL SCIENCES HEMATOLOGIC DISEASE …, dated 2023).

Columns and labels:
人BCMA (B细胞成熟抗原) = target: T1, 人BCMA (B细胞成熟抗原) (human, UniProt Q02223 1-184); assay: FACS titration (400 nM to 0.025 nM) on H929 cells, mean fluorescence, fitted in GraphPad Prism 7
T1 construct: whole, on cells; Endogenous BCMA on H929 cells; also called B-cell maturation antigen; H929细胞表面BCMA蛋白
T1 sequence (looked up): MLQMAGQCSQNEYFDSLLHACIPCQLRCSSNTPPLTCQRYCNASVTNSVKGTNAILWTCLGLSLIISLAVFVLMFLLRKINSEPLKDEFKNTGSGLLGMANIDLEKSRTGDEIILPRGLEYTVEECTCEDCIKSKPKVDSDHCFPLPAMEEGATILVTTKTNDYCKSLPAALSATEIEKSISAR

人CD3 = target: T2, 人CD3 (human, UniProt P07766 23-207); assay: FACS titration (400 nM to 0.025 nM) on Jurkat cells, mean fluorescence, fitted in GraphPad Prism 7
T2 construct: whole, on cells; also called Jurkat细胞表面CD3蛋白
T2 sequence (P07766 23-207): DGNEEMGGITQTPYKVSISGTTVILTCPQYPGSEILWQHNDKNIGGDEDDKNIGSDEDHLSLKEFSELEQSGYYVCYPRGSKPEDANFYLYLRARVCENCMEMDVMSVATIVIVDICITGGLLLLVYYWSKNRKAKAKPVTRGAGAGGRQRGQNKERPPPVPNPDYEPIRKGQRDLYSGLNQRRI

Kd (人BCMA (B细胞成熟抗原)): 1.96 nM
Kd (人CD3): 1.96 nM
B1: 四价双特异性抗体Tandab(CD3/BCMA) (bispecific antibody)
chain: DADIELTQSPAIMSASPGEKVTMTCSASSSVSYMNWYQQKSGTSPKRWIYDTSKLASGVPARFSGSGSGTSYSLTISGMEAEDAATYYCQQWSSNPFTFGCGTKLELKRGGGGSQVQLQQSGAEVVRPGTSVKVSCKASGYAFTNYLIEWVKQRPGQGPEWIGVITPGRGDTKYNAKFAGKATLTADKSSSTAYMQLSSLTFDDSAVYFCARGTTAWFPYWGQGTLVTVSAGGGGSGGGGSGGGGSDIVLTQSPASLTVSLGQRATISCRASKSVSTSGYSYMHWYQQKPRQPPKLLIYLASNLESGVPARFSGSGSGTDFTLNIHPVEEEDAATYYCQHSRDLPYTFGGGTKLEIKRAGGGGSQVQLQQSGAELARPGASVKMSCKASGYTFTRYTMHWVKQRPGQCLEWIGYINPSRGYTNYNQKFKDKATLTTDKSSSTAYMELTRLTSEDSAVYYCARYYDDHYSLDYWGQGTTVTVSSHHHHHH
notes: Tetravalent tandem diabody made from anti-BCMA mAb 69G8 and anti-CD3 mAb HIT3a, expressed in ExpiCHO-S cells and purified on a nickel column; detected with an anti-His secondary antibody, so it carries a His tag
